Measured values published in the Human Domainome abundance scans (Beltran et al. 2025).
± gives the uncertainty stated by the source.

B1: Membrane-associated guanylate kinase, WW and PDZ domain-containing protein 2, residues 601 to 682; numbered along this chain, Q86UL8 (parent)
chain: AELMTLTIVKGAQGFGFTIADSPTGQRVKQILDIQGCPGLCEGDLIVEINQQNVQNLSHTEVVDILKDCPIGSETSLIIHRG
B2: Pituitary-specific positive transcription factor 1, residues 130 to 198; numbered along this chain, P28069 (parent)
chain: RELEKFANEFKVRRIKLGYTQTNVGEALAAVHGSEFSQTTICRFENLQLSFKNACKLKAILSKWLEEAE

Variants of: B1
Assay: abundance fitness (aPCA) (normalised: wild type 0, dead -1); higher = more abundant; growth selection in yeast, the domain comes from the species named
Details: Homo sapiens
In the case of G82W, the abundance fitness is reported as -0.184 ± 0.15. G82V showed an abundance fitness of -0.188 ± 0.16. G82D gave an abundance fitness of 0.009 ± 0.11. With G82H the abundance fitness was -0.303 ± 0.27. With G82C the abundance fitness was -0.117 ± 0.16. In the case of G82P, the abundance fitness is reported as -0.058 ± 0.12. G82R showed an abundance fitness of -0.016 ± 0.082. Work on G82T yielded an abundance fitness of -0.023 ± 0.22. G82S showed an abundance fitness of -0.09 ± 0.076. G82A showed an abundance fitness of -0.051 ± 0.11. In the case of G82L, the abundance fitness is reported as -0.148 ± 0.17. G82F gave an abundance fitness of -0.25 ± 0.17. Work on G82Q yielded an abundance fitness of 0.092 ± 0.37. Variant G82K has an abundance fitness of -0.16 ± 0.15. R81W gave an abundance fitness of -0.52 ± 0.12. For R81T, the abundance fitness was -0.174 ± 0.12. For R81V, the abundance fitness was -0.252 ± 0.11.

Variants of: B2
Assay: as above
Details: Homo sapiens
With RECEKFANEFKVRRIKLGYTQTNVGEALAAVHGSEFSQTTICRFENLQLSFKNACKLKAILSKWLEEAE [L3C] the abundance fitness was -0.953 ± 0.44. REEEKFANEFKVRRIKLGYTQTNVGEALAAVHGSEFSQTTICRFENLQLSFKNACKLKAILSKWLEEAE [L3E] gave an abundance fitness of -0.725 ± 0.29. In the case of REHEKFANEFKVRRIKLGYTQTNVGEALAAVHGSEFSQTTICRFENLQLSFKNACKLKAILSKWLEEAE [L3H], the abundance fitness is reported as -0.611 ± 0.18. REGEKFANEFKVRRIKLGYTQTNVGEALAAVHGSEFSQTTICRFENLQLSFKNACKLKAILSKWLEEAE [L3G] gave an abundance fitness of -0.571 ± 0.11. Variant REFEKFANEFKVRRIKLGYTQTNVGEALAAVHGSEFSQTTICRFENLQLSFKNACKLKAILSKWLEEAE [L3F] has an abundance fitness of -0.472 ± 0.12. REKEKFANEFKVRRIKLGYTQTNVGEALAAVHGSEFSQTTICRFENLQLSFKNACKLKAILSKWLEEAE [L3K] showed an abundance fitness of -0.718 ± 0.26. Work on REIEKFANEFKVRRIKLGYTQTNVGEALAAVHGSEFSQTTICRFENLQLSFKNACKLKAILSKWLEEAE [L3I] yielded an abundance fitness of -0.194 ± 0.22. For REDEKFANEFKVRRIKLGYTQTNVGEALAAVHGSEFSQTTICRFENLQLSFKNACKLKAILSKWLEEAE [L3D], the abundance fitness was -0.794 ± 0.22. RYLEKFANEFKVRRIKLGYTQTNVGEALAAVHGSEFSQTTICRFENLQLSFKNACKLKAILSKWLEEAE [E2Y] showed an abundance fitness of -0.651 ± 0.27. Variant RSLEKFANEFKVRRIKLGYTQTNVGEALAAVHGSEFSQTTICRFENLQLSFKNACKLKAILSKWLEEAE [E2S] has an abundance fitness of -0.443 ± 0.069. For RWLEKFANEFKVRRIKLGYTQTNVGEALAAVHGSEFSQTTICRFENLQLSFKNACKLKAILSKWLEEAE [E2W], the abundance fitness was -0.541 ± 0.094. RGLEKFANEFKVRRIKLGYTQTNVGEALAAVHGSEFSQTTICRFENLQLSFKNACKLKAILSKWLEEAE [E2G] gave an abundance fitness of -0.373 ± 0.072. Variant RALEKFANEFKVRRIKLGYTQTNVGEALAAVHGSEFSQTTICRFENLQLSFKNACKLKAILSKWLEEAE [E2A] has an abundance fitness of -0.412 ± 0.087. RCLEKFANEFKVRRIKLGYTQTNVGEALAAVHGSEFSQTTICRFENLQLSFKNACKLKAILSKWLEEAE [E2C] gave an abundance fitness of -0.984 ± 0.32. RRLEKFANEFKVRRIKLGYTQTNVGEALAAVHGSEFSQTTICRFENLQLSFKNACKLKAILSKWLEEAE [E2R] showed an abundance fitness of -0.624 ± 0.091. With RKLEKFANEFKVRRIKLGYTQTNVGEALAAVHGSEFSQTTICRFENLQLSFKNACKLKAILSKWLEEAE [E2K] the abundance fitness was -0.471 ± 0.24. Work on RTLEKFANEFKVRRIKLGYTQTNVGEALAAVHGSEFSQTTICRFENLQLSFKNACKLKAILSKWLEEAE [E2T] yielded an abundance fitness of -0.334 ± 0.12. Work on RDLEKFANEFKVRRIKLGYTQTNVGEALAAVHGSEFSQTTICRFENLQLSFKNACKLKAILSKWLEEAE [E2D] yielded an abundance fitness of -0.109 ± 0.2. With RILEKFANEFKVRRIKLGYTQTNVGEALAAVHGSEFSQTTICRFENLQLSFKNACKLKAILSKWLEEAE [E2I] the abundance fitness was -0.676 ± 0.15. Variant RNLEKFANEFKVRRIKLGYTQTNVGEALAAVHGSEFSQTTICRFENLQLSFKNACKLKAILSKWLEEAE [E2N] has an abundance fitness of -0.518 ± 0.19. In the case of RLLEKFANEFKVRRIKLGYTQTNVGEALAAVHGSEFSQTTICRFENLQLSFKNACKLKAILSKWLEEAE [E2L], the abundance fitness is reported as -0.672 ± 0.14. For RVLEKFANEFKVRRIKLGYTQTNVGEALAAVHGSEFSQTTICRFENLQLSFKNACKLKAILSKWLEEAE [E2V], the abundance fitness was -0.895 ± 0.18. Work on RPLEKFANEFKVRRIKLGYTQTNVGEALAAVHGSEFSQTTICRFENLQLSFKNACKLKAILSKWLEEAE [E2P] yielded an abundance fitness of -0.462 ± 0.19. With RQLEKFANEFKVRRIKLGYTQTNVGEALAAVHGSEFSQTTICRFENLQLSFKNACKLKAILSKWLEEAE [E2Q] the abundance fitness was -0.523 ± 0.16. Work on RHLEKFANEFKVRRIKLGYTQTNVGEALAAVHGSEFSQTTICRFENLQLSFKNACKLKAILSKWLEEAE [E2H] yielded an abundance fitness of -0.968 ± 0.39. With TELEKFANEFKVRRIKLGYTQTNVGEALAAVHGSEFSQTTICRFENLQLSFKNACKLKAILSKWLEEAE [R1T] the abundance fitness was -0.371 ± 0.19. In the case of NELEKFANEFKVRRIKLGYTQTNVGEALAAVHGSEFSQTTICRFENLQLSFKNACKLKAILSKWLEEAE [R1N], the abundance fitness is reported as -0.37 ± 0.17. For DELEKFANEFKVRRIKLGYTQTNVGEALAAVHGSEFSQTTICRFENLQLSFKNACKLKAILSKWLEEAE [R1D], the abundance fitness was -0.187 ± 0.099. EELEKFANEFKVRRIKLGYTQTNVGEALAAVHGSEFSQTTICRFENLQLSFKNACKLKAILSKWLEEAE [R1E] showed an abundance fitness of -0.348 ± 0.48. With LELEKFANEFKVRRIKLGYTQTNVGEALAAVHGSEFSQTTICRFENLQLSFKNACKLKAILSKWLEEAE [R1L] the abundance fitness was -0.306 ± 0.37. In the case of KELEKFANEFKVRRIKLGYTQTNVGEALAAVHGSEFSQTTICRFENLQLSFKNACKLKAILSKWLEEAE [R1K], the abundance fitness is reported as 0.376 ± 0.14. IELEKFANEFKVRRIKLGYTQTNVGEALAAVHGSEFSQTTICRFENLQLSFKNACKLKAILSKWLEEAE [R1I] gave an abundance fitness of -0.508 ± 0.15. MELEKFANEFKVRRIKLGYTQTNVGEALAAVHGSEFSQTTICRFENLQLSFKNACKLKAILSKWLEEAE [R1M] gave an abundance fitness of -0.712 ± 0.26. In the case of VELEKFANEFKVRRIKLGYTQTNVGEALAAVHGSEFSQTTICRFENLQLSFKNACKLKAILSKWLEEAE [R1V], the abundance fitness is reported as -0.441 ± 0.14. Work on FELEKFANEFKVRRIKLGYTQTNVGEALAAVHGSEFSQTTICRFENLQLSFKNACKLKAILSKWLEEAE [R1F] yielded an abundance fitness of -0.128 ± 0.23.
